Reference: paper PMC10681739, “High-throughput data and modeling reveal insights into the mechanisms of cooperative DNA-binding by transcription factor proteins”

T1: ETS1 (Homo sapiens, UniProt P14921)
T1 sequence: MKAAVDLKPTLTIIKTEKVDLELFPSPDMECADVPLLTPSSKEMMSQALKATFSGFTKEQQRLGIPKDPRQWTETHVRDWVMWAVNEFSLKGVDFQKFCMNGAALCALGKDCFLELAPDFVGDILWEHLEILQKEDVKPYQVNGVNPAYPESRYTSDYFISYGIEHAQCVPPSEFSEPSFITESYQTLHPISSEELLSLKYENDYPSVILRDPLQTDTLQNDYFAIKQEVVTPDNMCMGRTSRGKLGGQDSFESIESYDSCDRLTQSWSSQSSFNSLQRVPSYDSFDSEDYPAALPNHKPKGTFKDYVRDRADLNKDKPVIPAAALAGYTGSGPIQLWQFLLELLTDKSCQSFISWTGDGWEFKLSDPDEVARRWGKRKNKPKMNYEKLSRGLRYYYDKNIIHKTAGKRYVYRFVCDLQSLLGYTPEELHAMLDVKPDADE

B1: Table S2 C row 154 (dsDNA)
DNA 1: CCGTAATCTTCATAAACCTCAATGCTCAAGGTGCAG
DNA 2: CTGCACCTTGAGCATTGAGGTTTATGAAGATTACGG
B2: Table S2 C row 64 (dsDNA)
DNA 1: GACAGAAAGCAAATTAGTGGTAGCCAAGGGCTAGGG
DNA 2: CCCTAGCCCTTGGCTACCACTAATTTGCTTTCTGTC
B3: Table S2 C row 107 (dsDNA)
DNA 1: TGGCTGAGGGTCTTCTGTGGGTGGACGCATGATTAA
DNA 2: TTAATCATGCGTCCACCCACAGAAGACCCTCAGCCA
B4: Table S2 C row 60 (dsDNA)
DNA 1: AGACTCAGGTGGTAAACCGCAGGCCATTTACATACC
DNA 2: GGTATGTAAATGGCCTGCGGTTTACCACCTGAGTCT
B5: Table S2 C row 153 (dsDNA)
DNA 1: GTAACAACACCAAGGACCACAAATGTGTATGTTGAA
DNA 2: TTCAACATACACATTTGTGGTCCTTGGTGTTGTTAC
B6: Table S2 C row 175 (dsDNA)
DNA 1: CATCTCAAAGCCTCCTGTGGGTGGAGATGGAATGTG
DNA 2: CACATTCCATCTCCACCCACAGGAGGCTTTGAGATG
B7: Table S2 C row 138 (dsDNA)
DNA 1: AGTAGTGCTTTTTCAACCACAGACCAACATTTGAGA
DNA 2: TCTCAAATGTTGGTCTGTGGTTGAAAAAGCACTACT
B8: Table S2 B row 1578 (dsDNA)
DNA 1: GGCTTCCTGCCCAACTACCAAGAAAAAGTCACAAAG
DNA 2: CTTTGTGACTTTTTCTTGGTAGTTGGGCAGGAAGCC
B9: Table S2 C row 13 (dsDNA)
DNA 1: AACTCACTAGTGTTTTGAGGTTTTAATTGACACCAC
DNA 2: GTGGTGTCAATTAAAACCTCAAAACACTAGTGAGTT
B10: Table S2 C row 197 (dsDNA)
DNA 1: TTGAACTTAGTAGCAACCACACATGGCCATTATTTG
DNA 2: CAAATAATGGCCATGTGTGGTTGCTACTAAGTTCAA
B11: Table S2 C row 170 (dsDNA)
DNA 1: TCCTGAACTATTCACTGTGGTGATGAAATATGCTAA
DNA 2: TTAGCATATTTCATCACCACAGTGAATAGTTCAGGA
B12: Table S2 C row 159 (dsDNA)
DNA 1: GGAGAGGAGAAAATGCCCACAGGGTACATGGAAAGC
DNA 2: GCTTTCCATGTACCCTGTGGGCATTTTCTCCTCTCC
B13: Table S2 C row 82 (dsDNA)
DNA 1: ATTCTAAAATTGGACTGTGGTAAGGGTTGCACAACT
DNA 2: AGTTGTGCAACCCTTACCACAGTCCAATTTTAGAAT
B14: Table S2 C row 131 (dsDNA)
DNA 1: GAGGCATTATAGAAAACCGCAAGATTTTAGTCTGAG
DNA 2: CTCAGACTAAAATCTTGCGGTTTTCTATAATGCCTC
B15: Table S2 C row 117 (dsDNA)
DNA 1: ACAGAGCCATTACCTACCACAGAGCTGACGTGAACA
DNA 2: TGTTCACGTCAGCTCTGTGGTAGGTAATGGCTCTGT
B16: Table S2 C row 3 (dsDNA)
DNA 1: GCGAGAGCAGCAAGAACCACACCCAGCAGCAATGTC
DNA 2: GACATTGCTGCTGGGTGTGGTTCTTGCTGCTCTCGC
B17: Table S2 C row 1 (dsDNA)
DNA 1: CCCTCATCTGAGAACACCACATTTCTCCCTCTGTCA
DNA 2: TGACAGAGGGAGAAATGTGGTGTTCTCAGATGAGGG
B18: Table S2 C row 84 (dsDNA)
DNA 1: ATCTATTATGAGCCTACCACCATGCTAGACAAGTTG
DNA 2: CAACTTGTCTAGCATGGTGGTAGGCTCATAATAGAT
B19: Table S2 C row 38 (dsDNA)
DNA 1: CAATTTAGCCTTTTAACCACTAAACTCCCTTGCCTA
DNA 2: TAGGCAAGGGAGTTTAGTGGTTAAAAGGCTAAATTG
B20: Table S2 C row 119 (dsDNA)
DNA 1: GGAAAGGTTGACGATAGTGGTTAAGTGGCTCGGCCT
DNA 2: AGGCCGAGCCACTTAACCACTATCGTCAACCTTTCC
B21: Table S2 C row 176 (dsDNA)
DNA 1: ATATCCACTCAGTAGTGTGGTTTGTAAGGACTAAAT
DNA 2: ATTTAGTCCTTACAAACCACACTACTGAGTGGATAT
B22: Table S2 B row 1486 (dsDNA)
DNA 1: TCTGTCGTCCCACTTCCTGCTGCGGATTCCACCTCG
DNA 2: CGAGGTGGAATCCGCAGCAGGAAGTGGGACGACAGA
B23: Table S2 C row 168 (dsDNA)
DNA 1: AACAGATACTCAAAAACCGCTGGCTGAACACATGGA
DNA 2: TCCATGTGTTCAGCCAGCGGTTTTTGAGTATCTGTT
B24: Table S2 C row 152 (dsDNA)
DNA 1: CTTTCATCTCTGACATGTGGCTTCTAAGGGTACACT
DNA 2: AGTGTACCCTTAGAAGCCACATGTCAGAGATGAAAG
B25: Table S2 C row 22 (dsDNA)
DNA 1: CTTGTTCAAGCAATTTGAGGTTTTTTAGGGAGGTTG
DNA 2: CAACCTCCCTAAAAAACCTCAAATTGCTTGAACAAG
B26: Table S2 C row 130 (dsDNA)
DNA 1: AATAATAGAGAAGACACCACAGTTGCCATGGTATTA
DNA 2: TAATACCATGGCAACTGTGGTGTCTTCTCTATTATT
B27: Table S2 C row 112 (dsDNA)
DNA 1: ACTGTCAAACATTCGACCACAATCTCTGAGGCTGGG
DNA 2: CCCAGCCTCAGAGATTGTGGTCGAATGTTTGACAGT
B28: Table S2 C row 99 (dsDNA)
DNA 1: ACAAGCATTTGATTCTGTGGGTCCCCAATGTTGGAA
DNA 2: TTCCAACATTGGGGACCCACAGAATCAAATGCTTGT
B29: Table S2 C row 27 (dsDNA)
DNA 1: AAAACAAGAACCAAAACCACAAGAACCACAAGAACC
DNA 2: GGTTCTTGTGGTTCTTGTGGTTTTGGTTCTTGTTTT
B30: Table S2 C row 155 (dsDNA)
DNA 1: CTCTTTGGCCTTGTCTGTGGTTCTACCAAATCCCAT
DNA 2: ATGGGATTTGGTAGAACCACAGACAAGGCCAAAGAG
B31: Table S2 C row 81 (dsDNA)
DNA 1: AGCCTGACTCTGTGCTGTGGTTGTGAGGCTGGAATG
DNA 2: CATTCCAGCCTCACAACCACAGCACAGAGTCAGGCT
B32: Table S2 B row 4091 (dsDNA)
DNA 1: GGCATTCACTTCCGGTCTGGGGCCTACGGCGGCGGC
DNA 2: GCCGCCGCCGTAGGCCCCAGACCGGAAGTGAATGCC

Target: T1, ETS1
Assay: gcPBM; 1 nM ETS1
Conditions: tags: N-terminal GST (pDEST15), kept (PMC6008103); label: surface-attached array probe

Row | Binder | binding signal
1 | B1 | 438 PBM fluorescence, median of replicate spots
2 | B2 | 439 PBM fluorescence, median of replicate spots
3 | B3 | 417 PBM fluorescence, median of replicate spots
4 | B4 | 408 PBM fluorescence, median of replicate spots
5 | B5 | 421 PBM fluorescence, median of replicate spots
6 | B6 | 414 PBM fluorescence, median of replicate spots
7 | B7 | 437 PBM fluorescence, median of replicate spots
8 | B8 | 12500 PBM fluorescence, median of replicate spots
9 | B9 | 420 PBM fluorescence, median of replicate spots
10 | B10 | 416 PBM fluorescence, median of replicate spots
11 | B11 | 432 PBM fluorescence, median of replicate spots
12 | B12 | 409 PBM fluorescence, median of replicate spots
13 | B13 | 420 PBM fluorescence, median of replicate spots
14 | B14 | 420 PBM fluorescence, median of replicate spots
15 | B15 | 437 PBM fluorescence, median of replicate spots
16 | B16 | 422 PBM fluorescence, median of replicate spots

Row | Binder | binding signal
17 | B17 | 436 PBM fluorescence, median of replicate spots
18 | B18 | 434 PBM fluorescence, median of replicate spots
19 | B19 | 426 PBM fluorescence, median of replicate spots
20 | B20 | 429 PBM fluorescence, median of replicate spots
21 | B21 | 440 PBM fluorescence, median of replicate spots
22 | B22 | 12200 PBM fluorescence, median of replicate spots
23 | B23 | 425 PBM fluorescence, median of replicate spots
24 | B24 | 421 PBM fluorescence, median of replicate spots
25 | B25 | 428 PBM fluorescence, median of replicate spots
26 | B26 | 414 PBM fluorescence, median of replicate spots
27 | B27 | 409 PBM fluorescence, median of replicate spots
28 | B28 | 431 PBM fluorescence, median of replicate spots
29 | B29 | 420 PBM fluorescence, median of replicate spots
30 | B30 | 414 PBM fluorescence, median of replicate spots
31 | B31 | 440 PBM fluorescence, median of replicate spots
32 | B32 | 37100 PBM fluorescence, median of replicate spots
